Test results published in patent publication US20230082287A1, “METHODS OF TREATING AN INFLAMMATORY OR OBSTRUCTIVE AIRWAY DISEASE USING ANTI-TSLP ANTIBODY” (Novartis AG, priority 2020, published 2023).
Like-named read-outs stand apart in the source and are kept apart here.

Experiments:
[1] = test system: late asthmatic response (LAR); conditions: 400/12 μg; J ALLERGY CLIN IMMUNOL VOLUME 119, NUMBER 2, pp 322-327; cited from earlier work
[2] = test system: late asthmatic response (LAR); assay: Published allergen challenge LAR data for budesonide/formoterol; type: in vivo; conditions: 400/12 μg; calculated from published data
Text: Published data from other widely asthma treatment budosenide/formoterol (ICS/LABA, inhaled corticosteroid+long-acting beta agonist) combination was used in a similar fashion to calculate its efficacy and results compared with CSJ117 in Table 10.

[3] = Healthy Japanese SAD study: serum CSJ117 pharmacokinetics; conditions: cross-study comparison at 9 and 32 mg
Procedure: (§2) In addition, the PK analysis set for the healthy Japanese SAD Study included 18 subjects, six subjects per single inhaled dose of 9, 16 and 32 mg administered via Concept 1 device.

[4] = GLP monkey toxicity study: dose and exposure multiples versus human 4 mg QD dose; type: in vivo, cynomolgus monkey
Text: The rationale for a 12-week study treatment duration was based on the following: (i) the 12-week treatment period was warranted from a safety perspective given the data from the 13-week cynomolgus monkey toxicity study; (ii) the 12-week dosing period was anticipated to provide greater information on the PK profile of CSJ117 in humans (as compared to a shorter study duration); (iii) completing 12-weeks of dosing prior to dose escalation(s) provided greater safety information, as systemic exposure is expected to have achieved steady state; (iv) 12 weeks was expected to be sufficient duration to allow assessment of PD effects in the AIC.
Lung weight scaling was selected for the HED calculation due to the CSJ117-related changes in the respiratory tract and the lack of significant systemic side effects in the monkey toxicity studies. • Exposure multiples were also calculated to compare the observed systemic exposure in monkeys with the systemic exposure in humans, based on the observed single dose PK data in healthy subjects, assuming either linear or nonlinear PK. For multiple daily inhalations in humans, assuming linear and time-independent PK (i.e., a 2.4 fold accumulation ratio), the estimated human systemic exposure at steady state for a 4 mg dose was 948-fold below the monkey Day 91 systemic exposure.

[5] = in vivo
Procedure: Single dose of 1 mg (Cohort 1), 3 mg (Cohort 2), 9 mg (Cohort 3), 32 mg (Cohort 4), 64 mg (Cohort 5), 160 mg (Cohort 6) or placebo was administered via inhalation. First-in-human study was conducted in 51 healthy volunteers (HVs), of which 37 subjects were exposed to CSJ117 and 12 to placebo.
The PK analysis set for the FIH SAD Study included 37 subjects. PK samples were collected up to 28 days post dose.

[6] = test system: allergen inhalation challenge (AIC) in subjects with mild atopic asthma; assay: Phase 2a allergen bronchoprovocation study (LAR, EAR, FeNO); type: in vivo, human
Text: CSJ117, as an inhaled Fab targeting TSLP, offers the potential to be an efficacious therapy for severe asthma with a favorable safety and tolerability profile. This study used inhaled allergen bronchoprovocation testing as a model for allergic asthma, in an effort to predict CSJ117 efficacy in the eventual severe asthma patient population. As a model for allergic asthma, standardized inhaled allergen bronchoprovocation testing can induce the acute and some of the more chronic features of asthma in human subjects with mild atopic asthma. In sensitized subjects, inhalation of a relevant allergen results in acute bronchoconstriction (the early asthma response or EAR [EAR defined as ≥20% fall in forced expiratory volume in 1 second (FEV1) between 0-2 hours after inhalation of allergen] Boulet et al 2007). In approximately 50% of subjects the EAR is followed by an inflammatory airway response with prolonged airway narrowing (the late asthma response or LAR [LAR defined as ≥15% fall in FEV1 between 3-7 hours after inhalation of allergen] Boulet et al 2007). In general, inhibition of the LAR in the allergen bronchoprovocation model is a good predictor of clinical efficacy in the moderate to severe asthma patient population (Diamant et al 2013). The objectives of this allergen bronchoprovocation study were to characterize the safety, tolerability, pharmacokinetics (PK) and pharmacodynamic (PD) effects of CSJ117 in subjects with mild atopic asthma over 12 weeks of treatment to determine if further clinical development is warranted.
(§1) This was a non-confirmatory, randomized, subject- and investigator-blinded, placebo-controlled, parallel-design, multi-center bronchoprovocation study. […] Two sequential dose cohorts were enrolled for this study. • Cohort 1: 24 subjects (12 active and 12 placebo) • Cohort 2a: 4 subjects (3 active and 1 placebo)
There was only one active dose used in the study, i.e. CSJ117 4 mg used for both Cohort 1 & 2a. Placebo subjects from all cohorts were pooled for analyses.
For all cohorts, the study consisted of a 35-day screening period, a baseline evaluation, a 12-week treatment period (consisting of a single dose on Day 1, safety evaluation Days 1-3 and commencement of QD dosing on Day 3) and a 30-day follow up period (FIG. 3).
On Day 1 (Visit 101) of the treatment period, after completion of all pre-dose assessments, subjects were randomized and received a single dose of CSJ117 or placebo in the morning and then underwent safety assessments, observation and PK sampling in-clinic for a period of 8 hours post-dose. On Day 2 (Visit 102), the subject returned to the clinic for evaluation and PK sampling. On Day 3 (Visit 103), the subjects returned to clinic for evaluation. On Day 3 (Visit 103) subjects took an inhaled dose of CSJ117 or placebo in the clinic. For the remaining duration of the 12-week treatment period, subjects took daily inhaled doses of CSJ117 or placebo, in the clinic on study visit days or at home. […]
Dog, cat, horse, mouse, cattle, rat and bird allergens were included in the challenge. Table 6 and Table 7 show the fall in FEV1 values and percentages, respectively, after the allergen challenges. […]
The early asthmatic response (EAR) after an allergen inhalation challenge on Day 42 and Day 84 was assessed by measuring the (1) area under the curve (AUC) time-adjusted percent fall in the FEV1, (2) maximum percent fall in the FEV1, and (3) minimum absolute FEV1 between 0 and 2 hours after […].

[7] = First-in-human single ascending dose study: safety and tolerability; type: in vivo
Procedure: The safety, tolerability and PK of CSJ117 have been evaluated in healthy volunteers (HV) in a single ascending dose (SAD) study.
A first-in-human, randomized, subject-blind, placebo controlled, single ascending dose study was conducted to assess the safety, tolerability and pharmacokinetics of CSJ117 in adult healthy subjects. Single dose of 1 mg (Cohort 1), 3 mg (Cohort 2), 9 mg (Cohort 3), 32 mg (Cohort 4), 64 mg (Cohort 5), 160 mg (Cohort 6) or placebo was administered via inhalation.

[8] = test system: late asthmatic response (LAR); assay: Hill equation simulation of CSJ117 dose-response (LAR efficacy); design: species or system human; conditions: for Predicted efficacy: range over Emax scenarios; for ED50: Dose = 4 mg, E = 47.6%, Hill slope n = 1
Procedure: Simulation of Dose-Response Curves of CSJ117 from Doses Ranging from 0.5 to 8 mg:
% Efficacy of CSJ117 in PoC study compared to placebo was calculated using following formula: % E=[(B−A)/B]×100, where, E=Efficacy; A and B are LAR measured by max fall % FEV1 value in treated and placebo groups, respectively.
Maximum efficacy (Emax) of CSJ117 is unknown at this time and three potential values of Emax are possible:
From Emax and ED50 in each scenario above, a dose-response curve was generated using Hill equation to assess range of efficacy values resulting from 0.5 to 8 mg once daily dose of CSJ117 (FIGS. 6 and 7). Efficacy due to 0.5 mg and 8 mg once daily dose of CSJ117 is predicted to range from 10-35% and 65-88% of maximum effect, respectively. As visible in plots of FIGS. 6 and 7, the planned dose range of 0.5, 1, 2, 4, and 8 mg o.d. of CSJ117 during Ph2B (Example 4) is expected to adequately describe the dose-response for CSJ117.

[9] = human, in vivo, inhaled or intranasal, 32 mg
Procedure: as §2

[10] = Phase 2a bronchoprovocation study: safety and tolerability; type: in vivo; conditions: 12 weeks
Text: as §1
No adverse events (AE) imbalance observed across treatment groups. […] No subject discontinued study drug due to an adverse event. The most frequent treatment-emergent adverse events were headache, nasopharyngitis, and oropharyngeal pain.

[11] = human, inhaled or intranasal, 1 mg
[12] = human, inhaled or intranasal, 3 mg
[13] = human, inhaled or intranasal, 9 mg
[14] = human, inhaled or intranasal, 32 mg
[15] = human, inhaled or intranasal, 64 mg
[16] = human, inhaled or intranasal, 160 mg
[17] = Day 42, 4 mg QD inhaled (N = 12)
[18] = Day 84, 4 mg QD inhaled (N = 13)

Molecule: Budesonide/formoterol
- LAR Treatment (A), maximal fall % FEV1 [1]: 4.2%
- E, % [(B-A)/B]*100 [2]: 80.2%
- LAR B-A (placebo minus treatment), maximal fall % FEV1 [2]: 17

B1: CSJ117: potent neutralizing antibody fragment (Fab) directed against human TSLP; heavy chain SEQ ID NO: 9, light chain SEQ ID NO: 19 (antibody)
heavy: EVQLVESGGGLVKPGGSLRLSCAASGFTFSDYWMHWVRQAPGKGLEWVGHIKSKTDAGTTDYAAPVKGRFTISRDDSKNTLYLQMNSLKTEDTAVYYCAREIYYYAFDSWGQGTLVTVSSASTKGPSVFPLAPSSKSTSGGTAALGCLVKDYFPEPVTVSWNSGALTSGVHTFPAVLQSSGLYSLSSVVTVPSSSLGTQTYICNVNHKPSNTKVDKRVEPKSC
light: SYELTQPLSVSVALGQTARITCSGDNIGSKYVHWYQQKPGQAPVLVIYGDNERPSGIPERFSGSNSGNTATLTISRAQAGDEADYYCQAADWVDFYVFGGGTKLTVLGQPKAAPSVTLFPPSSEELQANKATLVCLISDFYPGAVTVAWKADSSPVKAGVETTTPSKQSNNKYAASSYLSLTPEQWKSHRSYSCQVTHEGSTVEKTVAPTECS
- AUCinf in Japanese relative to non-Japanese subjects [3]: 0.6-1.5 fold
- Cmax in Japanese relative to non-Japanese subjects [3]: 0.5-1.1 fold
- Accumulation ratio in humans ([4]; cynomolgus monkey, in vivo): 2.4 fold
- Systemic accumulation ratio observed in monkeys ([4]; cynomolgus monkey, in vivo): 148 fold
- Dose multiple: human equivalent dose of monkey NOAEL versus 4 mg QD ([4]; lung weight scaling): 51.5 fold
- mean terminal elimination half-life (T1/2) ([5]; human, inhaled or intranasal): 17.4 to 21.1 h
- median time to achieve maximum CSJ117 serum concentration (Tmax) ([5]; human, inhaled or intranasal): 6 to 21 h
- AUClast [5, 11]: 109 ng·h/mL
- Cmax [5, 11]: 5.90 ng/mL
- T1/2 [5, 11]: 18.5 h
- Tmax [5, 11]: 21.0 h
- AUClast [5, 12]: 127 ng·h/mL
- Cmax [5, 12]: 5.65 ng/mL
- T1/2 [5, 12]: 18.7 h
- Tmax [5, 12]: 12.0 h
- AUCinf [5, 13]: 597 ng·h/mL
- AUClast [5, 13]: 353 ng·h/mL
- CL/F [5, 13]: 15.6 L/h
- Cmax [5, 13]: 12.5 ng/mL
- T1/2 [5, 13]: 21.1 h
- Tmax [5, 13]: 12.0 h
- Vz/F [5, 13]: 481 L
- AUCinf [5, 14]: 1710 ng·h/mL
- AUClast [5, 14]: 1610 ng·h/mL
- CL/F [5, 14]: 22.0 L/h
- Cmax [5, 14]: 57.6 ng/mL
- T1/2 [5, 14]: 17.4 h
- Tmax [5, 14]: 6.00 h
- Vz/F [5, 14]: 555 L
- AUCinf [5, 15]: 2650 ng·h/mL
- AUClast [5, 15]: 2500 ng·h/mL
- CL/F [5, 15]: 28.5 L/h
- Cmax [5, 15]: 61.4 ng/mL
- T1/2 [5, 15]: 20.1 h
- Tmax [5, 15]: 12.0 h
- Vz/F [5, 15]: 815 L
- AUCinf [5, 16]: 5750 ng·h/mL
- AUClast [5, 16]: 5590 ng·h/mL
- CL/F [5, 16]: 33.0 L/h
- Cmax [5, 16]: 152 ng/mL
- T1/2 [5, 16]: 18.2 h
- Tmax [5, 16]: 9.00 h
- Vz/F [5, 16]: 915 L
- CSJ117 serum exposure versus dose [5]: increased in a dose-dependent manner
- E, % [(B-A)/B]*100 ([6]; CSJ117 4 mg OD, LAR max fall % FEV1): 47.6%
- LAR B-A (placebo minus treatment), Max fall % FEV1 ([6]; CSJ117 4 mg OD, PoC study): 8.42
- LAR Treatment (A), Max fall % FEV1 ([6]; CSJ117 4 mg OD, PoC study): 9.28%
- LAR time adjusted AUC 3-7 h, Difference (CSJ117-Placebo) (Table 6) ([6]; Day 42, 4 mg QD): −2.64%
- LAR time adjusted AUC 3-7 h, Difference (CSJ117-Placebo) (Table 7) ([6]; Day 42, 4 mg QD): −2.90%
- LAR time adjusted AUC 3-7 h, Difference (CSJ117-Placebo) (Table 8) ([6]; Day 42, 4 mg QD): −1.02%
- LAR time adjusted AUC 3-7 h, Difference (CSJ117-Placebo) (Table 9) ([6]; Day 42, 4 mg QD): −4.70%
- LAR time adjusted AUC 3-7 h, model-based mean estimate (Table 6) [6, 17]: 13.11%
- LAR time adjusted AUC 3-7 h, model-based mean estimate (Table 7) [6, 17]: 6.46%
- LAR time adjusted AUC 3-7 h, model-based mean estimate (Table 8) [6, 17]: 15.11%
- LAR time adjusted AUC 3-7 h, model-based mean estimate (Table 9) [6, 17]: 27.85%
- LAR time adjusted AUC 3-7 h, Difference (CSJ117-Placebo) (Table 6) ([6]; Day 84, 4 mg QD): −8.42%
- LAR time adjusted AUC 3-7 h, Difference (CSJ117-Placebo) (Table 7) ([6]; Day 84, 4 mg QD): −7.18%
- LAR time adjusted AUC 3-7 h, Difference (CSJ117-Placebo) (Table 8) ([6]; Day 84, 4 mg QD): −4.26%
- LAR time adjusted AUC 3-7 h, Difference (CSJ117-Placebo) (Table 9) ([6]; Day 84, 4 mg QD): −5.41%
- LAR time adjusted AUC 3-7 h, model-based mean estimate (Table 6) [6, 18]: 9.28%
- LAR time adjusted AUC 3-7 h, model-based mean estimate (Table 7) [6, 18]: 4.20%
- LAR time adjusted AUC 3-7 h, model-based mean estimate (Table 8) [6, 18]: 12.83%
- LAR time adjusted AUC 3-7 h, model-based mean estimate (Table 9) [6, 18]: 25.48%
- minimum absolute FEV1 between 3 and 7 hours compared with placebo ([6]; Day 84, p-value of 0.050): statistically less
- AUC of the time-adjusted fall in FEV1 during the late response ([6]; day 84, 4 mg daily inhalation, vs placebo 11.38%, p=0.008): 4.20%
- maximum fall % FEV1 during the late response ([6]; day 84, 4 mg daily inhalation, vs placebo 17.70%, P=0.029): 9.28%
- fractional exhaled nitric oxide (FeNO) compared with placebo ([6]; over the 12-week treatment period, 4 mg QD): trend for a reduction
- Subjects with adverse events (AEs) ([7]; 7/37 CSJ117 subjects, single inhaled doses 1-160 mg): 19 % of subjects
- Deaths or serious adverse events ([7]; FIH study): no deaths or serious adverse events
- Predicted efficacy ([8]; 0.5 mg once daily dose): 10-35 % of maximum effect
- Predicted efficacy ([8]; 8 mg once daily dose): 65-88 % of maximum effect
- ED50 ([8]; Scenario 1: Emax 100%): 4.4 mg
- ED50 ([8]; Scenario 2: Emax 80%): 2.3 mg
- ED50 ([8]; Scenario 3: Emax 60%): 1.0 mg
- mean T1/2 [9]: 18.6 to 22.4 h
- Severe or serious adverse events ([10]; 4 mg QD): No subject developed a severe or serious adverse event
- Safety and tolerability ([10]; mild asthmatics, 4 mg QD): safe and well tolerated
- rate of moderately severe adverse events ([10]; subjects receiving CSJ117 4 mg QD): 21.6%
